Source: publication PMC10201424, “Biochemical characterisation of Mer3 helicase interactions and the protection of meiotic recombination intermediates” (Nucleic Acids Research, 2022)
Values belong to the binder of their own block, whether it stands above or below them.

Experiments:
Settings in all cases: both partners purified
[1] = target: T1, Top3/GST-Rmi1 complex (S. cerevisiae, UniProt P13099 1-656; Q02685 1-241); assay: pull-down; competition: Top3/GST-Rmi1 (1 μM) on glutathione beads, Mer3-Strep 1 μM, His-Sgs1(1–107) 8 or 25 μM; 25 mM HEPES pH 7.5, 5% glycerol, 100 mM NaCl, 1 mM TCEP, 0.1% Tween-20; Coomassie
T1 construct: Top3 (type IA topoisomerase), S. cerevisiae, from SK1 strain genomic DNA; untagged; Rmi1, S. cerevisiae, from SK1 strain genomic DNA; also called GST-tagged Top3–Rmi1; GST-Rmi1/Top3; source: Hi5 insect cells (co-expressed from pBIG1a), purified (GSTrap, ResourceS, SEC); not shown: GST, N-terminal, kept
T1 sequence (looked up) 1: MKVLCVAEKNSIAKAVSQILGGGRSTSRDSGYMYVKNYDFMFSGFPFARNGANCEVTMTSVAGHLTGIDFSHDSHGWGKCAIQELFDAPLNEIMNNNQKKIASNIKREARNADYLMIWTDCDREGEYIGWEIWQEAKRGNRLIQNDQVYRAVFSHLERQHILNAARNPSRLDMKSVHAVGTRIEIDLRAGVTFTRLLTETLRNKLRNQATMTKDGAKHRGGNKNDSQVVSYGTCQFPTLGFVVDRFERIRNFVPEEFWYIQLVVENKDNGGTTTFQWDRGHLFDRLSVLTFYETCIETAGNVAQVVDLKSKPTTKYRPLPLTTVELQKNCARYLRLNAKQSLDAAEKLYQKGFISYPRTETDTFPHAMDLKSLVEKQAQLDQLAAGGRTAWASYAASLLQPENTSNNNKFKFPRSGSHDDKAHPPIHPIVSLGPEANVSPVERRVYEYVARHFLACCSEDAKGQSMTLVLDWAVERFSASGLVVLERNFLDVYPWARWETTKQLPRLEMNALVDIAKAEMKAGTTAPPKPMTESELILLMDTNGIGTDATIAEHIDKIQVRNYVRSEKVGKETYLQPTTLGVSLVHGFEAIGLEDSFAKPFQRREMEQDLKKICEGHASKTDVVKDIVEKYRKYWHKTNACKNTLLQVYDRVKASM
T1 sequence (looked up) 2: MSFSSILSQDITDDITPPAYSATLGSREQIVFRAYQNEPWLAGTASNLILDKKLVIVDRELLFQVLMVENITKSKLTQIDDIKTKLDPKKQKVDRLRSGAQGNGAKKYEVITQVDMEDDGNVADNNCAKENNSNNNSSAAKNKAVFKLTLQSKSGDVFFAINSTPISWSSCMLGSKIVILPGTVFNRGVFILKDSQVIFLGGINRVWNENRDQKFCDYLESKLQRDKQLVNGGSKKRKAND

[2] = target: T2, Top3/Rmi1 complex (as used in MST and XL-MS) (S. cerevisiae, UniProt P13099 1-656; Q02685 1-241); assay: MST; 30 nM RED-NHS labelled Sgs1(1–605), Top3–Rmi1 titrated; 50 mM Tris–HCl pH 7.4, 150 mM NaCl, 10 mM MgCl2, 0.05% Tween-20; 25°C; triplicates
T2 construct: Top3 (type IA topoisomerase), S. cerevisiae, from SK1 strain genomic DNA; untagged; Rmi1, S. cerevisiae, from SK1 strain genomic DNA; The methods describe a GST-tagged and an untagged (3C protease cleaved) preparation; source: Hi5 insect cells (co-expressed from pBIG1a), purified
T2 sequence (looked up) 1: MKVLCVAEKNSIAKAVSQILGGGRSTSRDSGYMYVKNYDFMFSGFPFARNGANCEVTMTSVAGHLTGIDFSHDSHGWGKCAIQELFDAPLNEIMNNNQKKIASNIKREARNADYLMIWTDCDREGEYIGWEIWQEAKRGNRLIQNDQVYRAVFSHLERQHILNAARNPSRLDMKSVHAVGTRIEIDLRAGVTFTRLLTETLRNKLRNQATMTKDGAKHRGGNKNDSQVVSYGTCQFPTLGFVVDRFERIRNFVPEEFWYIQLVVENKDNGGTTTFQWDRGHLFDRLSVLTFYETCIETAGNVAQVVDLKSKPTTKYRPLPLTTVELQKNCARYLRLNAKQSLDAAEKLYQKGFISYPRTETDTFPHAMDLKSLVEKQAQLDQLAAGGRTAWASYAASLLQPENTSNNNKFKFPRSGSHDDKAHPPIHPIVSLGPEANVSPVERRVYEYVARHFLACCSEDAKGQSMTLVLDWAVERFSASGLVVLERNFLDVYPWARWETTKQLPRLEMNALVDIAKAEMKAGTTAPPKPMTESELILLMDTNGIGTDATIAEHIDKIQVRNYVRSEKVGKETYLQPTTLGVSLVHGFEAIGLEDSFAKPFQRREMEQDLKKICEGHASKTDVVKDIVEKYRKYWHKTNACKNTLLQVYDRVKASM
T2 sequence (looked up) 2: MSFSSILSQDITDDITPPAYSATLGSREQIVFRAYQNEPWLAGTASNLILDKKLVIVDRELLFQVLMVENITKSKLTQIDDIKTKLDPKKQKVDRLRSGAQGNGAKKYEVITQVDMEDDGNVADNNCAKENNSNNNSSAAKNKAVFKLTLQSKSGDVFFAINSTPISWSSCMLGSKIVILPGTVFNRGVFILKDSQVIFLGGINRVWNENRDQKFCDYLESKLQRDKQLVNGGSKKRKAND

[3] = target: T3, Mer3-Strep (full-length S. cerevisiae Mer3 with C-terminal 2xStrep-II tag) (S. cerevisiae, UniProt P51979 1-1187, phosphorylated in insect cells; high-confidence sites S17, S80, T100, S398, S958, T1092); assay: pull-down; Mer3-Strep (0.7 μM) on streptavidin magnetic beads, His-Dmc1 3.2 μM or Rad51 2.8 μM; 25 mM HEPES pH 7.5, 5% glycerol, 100 mM NaCl, 1 mM TCEP, 0.1% Tween-20; stained gel
T3 sequence (looked up): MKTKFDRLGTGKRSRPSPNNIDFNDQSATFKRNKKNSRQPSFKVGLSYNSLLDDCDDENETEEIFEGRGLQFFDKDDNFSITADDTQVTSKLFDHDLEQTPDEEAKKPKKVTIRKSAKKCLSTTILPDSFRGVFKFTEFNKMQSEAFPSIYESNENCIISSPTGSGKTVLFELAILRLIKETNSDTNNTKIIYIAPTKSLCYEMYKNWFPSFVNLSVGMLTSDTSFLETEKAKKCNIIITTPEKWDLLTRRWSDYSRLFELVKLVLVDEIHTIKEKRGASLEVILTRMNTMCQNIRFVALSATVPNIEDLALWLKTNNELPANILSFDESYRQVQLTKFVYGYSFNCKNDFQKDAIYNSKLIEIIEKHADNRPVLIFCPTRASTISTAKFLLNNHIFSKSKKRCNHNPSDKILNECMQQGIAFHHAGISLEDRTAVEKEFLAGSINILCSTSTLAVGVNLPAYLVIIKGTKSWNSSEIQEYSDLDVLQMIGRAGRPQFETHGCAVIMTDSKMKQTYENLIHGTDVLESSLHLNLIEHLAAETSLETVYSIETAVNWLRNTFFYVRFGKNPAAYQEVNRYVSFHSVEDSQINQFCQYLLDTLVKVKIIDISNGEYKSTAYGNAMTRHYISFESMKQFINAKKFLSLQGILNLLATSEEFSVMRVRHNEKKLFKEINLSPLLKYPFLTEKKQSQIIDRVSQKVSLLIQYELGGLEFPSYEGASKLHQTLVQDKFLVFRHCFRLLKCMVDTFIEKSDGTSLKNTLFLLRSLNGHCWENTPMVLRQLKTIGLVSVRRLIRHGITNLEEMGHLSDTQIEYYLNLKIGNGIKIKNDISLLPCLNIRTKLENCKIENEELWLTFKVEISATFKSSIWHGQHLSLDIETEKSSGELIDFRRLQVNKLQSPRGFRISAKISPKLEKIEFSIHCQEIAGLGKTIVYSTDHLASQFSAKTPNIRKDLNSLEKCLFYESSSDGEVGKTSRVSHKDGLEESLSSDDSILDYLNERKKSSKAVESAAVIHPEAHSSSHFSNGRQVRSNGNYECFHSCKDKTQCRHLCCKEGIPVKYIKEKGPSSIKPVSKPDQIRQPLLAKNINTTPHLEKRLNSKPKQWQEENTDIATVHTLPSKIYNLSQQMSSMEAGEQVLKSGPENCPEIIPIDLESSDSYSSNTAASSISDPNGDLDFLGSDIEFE

binding result [1]: binds
B1: His-tagged Sgs1(1–107) (domain or fragment, S. cerevisiae, UniProt P35187 1-107, looked up)
chain: MVTKPSHNLRREHKWLKETATLQEDKDFVFQAIQKHIANKRPKTNSPPTTPSKDECGPGTTNFITSIPASGPTNTATKQHEVMQTLSNDTEWLSYTATSNQYADVPM
notes: also called shorter fragment of Sgs1; source: E. coli BL21 STAR, purified (Ni-NTA, ResourceQ, SEC); not shown: His6, N-terminal, kept

Kd [2]: 478 ± 205 nM
B2: Sgs1(1–605) (domain or fragment, S. cerevisiae, UniProt P35187 1-605, looked up)
chain: MVTKPSHNLRREHKWLKETATLQEDKDFVFQAIQKHIANKRPKTNSPPTTPSKDECGPGTTNFITSIPASGPTNTATKQHEVMQTLSNDTEWLSYTATSNQYADVPMVDIPASTSVVSNPRTPNGSKTHNFNTFRPHMASSLVENDSSRNLGSRNNNKSVIDNSSIGKQLENDIKLEVIRLQGSLIMALKEQSKLLLQKCSIIESTSLSEDAKRLQLSRDIRPQLSNMSIRIDSLEKEIIKAKKDGMSKDQSKGRSQVSSQDDNIISSILPSPLEYNTSSRNSNLTSTTATTVTKALAITGAKQNITNNTGKNSNNDSNNDDLIQVLDDEDDIDCDPPVILKEGAPHSPAFPHLHMTSEEQDELTRRRNMRSREPVNYRIPDRDDPFDYVMGKSLRDDYPDVEREEDELTMEAEDDAHSSYMTTRDEEKEENELLNQSDFDFVVNDDLDPTQDTDYHDNMDVSANIQESSQEGDTRSTITLSQNKNVQVILSSPTAQSVPSNGQNQIGVEHIDLLEDDLEKDAILDDSMSFSFGRQHMPMSHSDLELIDSEKENEDFEEDNNNNGIEYLSDSDLERFDEERENRTQVADIQELDNDLKIITERKL
notes: Sgs1 helicase, S. cerevisiae, from SK1 strain genomic DNA, residues 1-605; For MST the fragment was labelled with RED-NHS dye; also called untagged Sgs1(1–605); N-terminal fragment of Sgs1; source: E. coli BL21 STAR, purified (MBPtrap, ResourceQ, 3C cleavage, SEC); not shown: His6, N-terminal, cleaved; MBP, N-terminal, cleaved

binding result [3]: binds
B3: His-Dmc1 (natural protein, yeast, UniProt P25453 1-334, looked up)
chain: MSVTGTEIDSDTAKNILSVDELQNYGINASDLQKLKSGGIYTVNTVLSTTRRHLCKIKGLSEVKVEKIKEAAGKIIQVGFIPATVQLDIRQRVYSLSTGSKQLDSILGGGIMTMSITEVFGEFRCGKTQMSHTLCVTTQLPREMGGGEGKVAYIDTEGTFRPERIKQIAEGYELDPESCLANVSYARALNSEHQMELVEQLGEELSSGDYRLIVVDSIMANFRVDYCGRGELSERQQKLNQHLFKLNRLAEEFNVAVFLTNQVQSDPGASALFASADGRKPIGGHVLAHASATRILLRKGRGDERVAKLQDSPDMPEKECVYVIGEKGITDSSD
